Laboratory results: US8026218 (UNIVERSITY OF ARIZONA, dated 2011)
Where two headings read alike, the source gives them in different places. Square brackets hold non-standard residues; d marks the D form. Ends that are not written are not given here. * marks the point of attachment. Glc = O-glucosyl on Ser side chain (Ser(OGlu)/Ser(OGlc)); NH(3,5-(CF3)2-benzyl) = FC(F)(F)c1cc(CN*)cc(C(F)(F)F)c1; NH‑Bn(CF3)2 = C-terminal Bn(CF3)2 amide; Dmt = Cc1cc(O)cc(C)c1C[C@H](N)C(=O)O; Nle = CCCC[C@H](N)C(=O)O

B1: TyrDAlaGlyPheNleProLeuTrpNHBn(CF3)2 (peptide)
peptide: YAGFXPLW
modifications: D-Ala at 2; Nle at 5 (written X); C-terminal NH-3,5-Bzl(CF3)2 amide
notes: also called TY045
B2: TyrDAlaGlyPheNleProSer(OGlu)TrpNHBn(CF3)2 (peptide)
peptide: Y[dA]GF[Nle]PS(Glc)W-{NH(3,5-(CF3)2-benzyl)}
notes: also called TY041
B3: DmtDAlaGlyPheNleProSer(OGlu)TrpNHBn(CF3)2 (peptide)
peptide: [Dmt][dA]GF[Nle]PS(Glc)W-{NH(3,5-(CF3)2-benzyl)}
notes: also called TY056
B4: TyrDAlaGlyPheNleProLeuSer(OGlu)TrpNHBn(CF3)2 (TY055) (peptide)
peptide: Y[dA]GF[Nle]PLS(Glc)W-{NH‑Bn(CF3)2}
B5: TyrDAlaGlyPheSer(OGlu)ProLeuTrpNHBn(CF3)2 (peptide)
peptide: Y[dA]GFS(Glc)PLW-{NH(3,5-(CF3)2-benzyl)}
notes: also called TY042
B6: Tyr[DPenGlyPheDPen]ProLeuTrpNHBn(CF3)2 (peptide)
peptide: YXGFXPLW
modifications: D-Pen at 2 and 5 (written X); disulfide 2-5; C-terminal NH-3,5-Bzl(CF3)2 amide
notes: cyclic; also called TY049

Key:
human NK1 receptor [1] = target: T1, human NK1 receptor (human, UniProt P25103 1-407); test: competition vs [3H]Substance P, hNK1 CHO cell membranes
T1 construct: whole, on cells; membrane preparations of the transfected cells were used; also called hNK1; human neurokinin-1 receptor
T1 sequence (P25103 whole entry): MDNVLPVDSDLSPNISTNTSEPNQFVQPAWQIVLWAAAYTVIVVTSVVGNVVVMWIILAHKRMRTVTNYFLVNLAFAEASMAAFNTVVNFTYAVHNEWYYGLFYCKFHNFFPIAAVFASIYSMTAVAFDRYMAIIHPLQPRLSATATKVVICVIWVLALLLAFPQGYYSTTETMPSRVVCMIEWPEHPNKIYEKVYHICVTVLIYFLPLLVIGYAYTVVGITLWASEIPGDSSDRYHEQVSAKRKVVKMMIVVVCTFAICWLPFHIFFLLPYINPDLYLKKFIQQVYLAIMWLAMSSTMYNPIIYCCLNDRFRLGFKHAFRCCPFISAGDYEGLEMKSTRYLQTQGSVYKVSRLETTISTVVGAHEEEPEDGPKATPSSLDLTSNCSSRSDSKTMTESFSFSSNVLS

human δ opioid receptor [2] = target: T2, human δ opioid receptor (human, UniProt P41143 1-372); test: competition vs [3H]DPDPE, hDOR cell membranes
T2 construct: whole, on cells; membrane preparations of the transfected cells were used; also called hDOR; DOR

guinea pig NK1 receptor [3] = target: guinea pig NK1 receptor (guinea pig, UniProt P30547 1-407); test: cell-based or functional assay
Target sequence in this assay (P30547 whole entry): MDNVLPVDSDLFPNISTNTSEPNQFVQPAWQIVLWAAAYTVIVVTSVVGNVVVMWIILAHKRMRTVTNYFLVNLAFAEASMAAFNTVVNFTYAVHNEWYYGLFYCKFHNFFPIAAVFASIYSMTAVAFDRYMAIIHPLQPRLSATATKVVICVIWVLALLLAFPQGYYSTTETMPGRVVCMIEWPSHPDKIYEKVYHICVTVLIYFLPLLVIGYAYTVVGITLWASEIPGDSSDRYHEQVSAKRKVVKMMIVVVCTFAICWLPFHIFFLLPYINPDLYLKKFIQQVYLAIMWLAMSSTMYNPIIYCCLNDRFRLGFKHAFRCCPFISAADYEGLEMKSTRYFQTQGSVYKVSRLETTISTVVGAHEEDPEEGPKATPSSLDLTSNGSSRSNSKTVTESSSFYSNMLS

human δ opioid receptor [4] = target: T2, human δ opioid receptor; test: cell-based or functional assay
[5] = target: T3, µ opioid receptor of the guinea pig isolated ileum (guinea pig, UniProt P97266 1-98); test: cell-based or functional assay
T3 sequence (P97266 whole entry): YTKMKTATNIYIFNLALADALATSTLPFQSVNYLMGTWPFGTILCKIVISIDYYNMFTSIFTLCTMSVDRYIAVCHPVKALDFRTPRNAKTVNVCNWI

human δ opioid receptor [6] = target: T2, human δ opioid receptor; test: cell-based or functional assay; remark: listed apart in the source
[7] = target: T3, µ opioid receptor of the guinea pig …; test: cell-based or functional assay; remark: listed apart in the source
rat µ opioid receptor [8] = target: T4, rat µ opioid receptor (rat, UniProt P33535 1-398); test: cell-based or functional assay
rat µ opioid receptor [9] = target: T4, rat µ opioid receptor; test: cell-based or functional assay; remark: listed apart in the source
rat NK1 receptor [10] = target: T5, rat NK1 receptor (rat, UniProt P14600 1-407); test: competition vs [3H]Substance P, rNK1 CHO cell membranes
T5 construct: whole, on cells; membrane preparations of the transfected cells were used; also called rNK1; rNK-1
T5 sequence (P14600 whole entry): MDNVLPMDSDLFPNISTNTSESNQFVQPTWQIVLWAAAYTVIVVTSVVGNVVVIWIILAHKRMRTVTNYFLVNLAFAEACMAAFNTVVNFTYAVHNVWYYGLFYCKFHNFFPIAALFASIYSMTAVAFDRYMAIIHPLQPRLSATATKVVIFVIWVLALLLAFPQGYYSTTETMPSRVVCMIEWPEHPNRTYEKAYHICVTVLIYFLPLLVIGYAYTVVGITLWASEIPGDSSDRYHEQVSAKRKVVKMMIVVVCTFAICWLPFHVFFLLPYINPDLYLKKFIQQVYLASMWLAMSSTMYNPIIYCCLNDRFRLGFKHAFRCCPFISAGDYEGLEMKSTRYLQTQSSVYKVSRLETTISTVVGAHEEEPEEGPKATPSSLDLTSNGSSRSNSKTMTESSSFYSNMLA

rat µ opioid receptor [11] = target: T4, rat µ opioid receptor; test: competition vs [3H]DAMGO, rMOR cell membranes
rat µ opioid receptor [12] = target: T4, rat µ opioid receptor; test: competition vs [3H]DAMGO, rMOR cell membranes; remark: listed apart in the source
rat NK1 receptor [13] = target: T5, rat NK1 receptor; test: competition vs [3H]Substance P, rNK1 CHO cell membranes; remark: listed apart in the source
human NK1 receptor [14] = target: T1, human NK1 receptor; test: competition vs [3H]Substance P, hNK1 CHO cell membranes; remark: listed apart in the source
rat NK1 receptor [15] = target: T6, rat NK1 receptor (rat, UniProt P14600 1-407); test: radioligand competition vs [3H]substance P, membranes of rNK1 CHO cells
T6 construct: whole, on cells; Used as membrane preparations of transfected CHO cells; also called rNK1; rat neurokinin-1 receptor
T6 sequence (P14600 whole entry): as above

[16] = target: µ opioid receptor of the guinea pig isolated ileum (guinea pig, UniProt P97266 1-98); test: cell-based or functional assay; remark: listed apart in the source
Target sequence in this assay (P97266 whole entry): as the sequence (P97266 whole entry) above

guinea pig NK1 receptor [17] = target: guinea pig NK1 receptor (guinea pig, UniProt P30547 1-407); test: cell-based or functional assay; remark: listed apart in the source
Target sequence in this assay (P30547 whole entry): as the sequence (P30547 whole entry) above

human NK1 receptor [18] = target: T7, human NK1 receptor (human, UniProt P25103 1-407); test: radioligand competition vs [3H]substance P, membranes of hNK1 CHO cells
T7 construct: whole, on cells; Used as membrane preparations of transfected CHO cells; also called hNK1; human neurokinin-1 receptor
T7 sequence (P25103 whole entry): as the sequence (P25103 whole entry) above

human NK1 receptor [19] = target: T1, human NK1 receptor; test: competition vs [3H]Substance P, hNK1 CHO cell membranes; remark: listed apart in the source
rat NK1 receptor [20] = target: T5, rat NK1 receptor; test: competition vs [3H]Substance P, rNK1 CHO cell membranes; remark: listed apart in the source

T2 sequence (P41143 whole entry, stated change not applied): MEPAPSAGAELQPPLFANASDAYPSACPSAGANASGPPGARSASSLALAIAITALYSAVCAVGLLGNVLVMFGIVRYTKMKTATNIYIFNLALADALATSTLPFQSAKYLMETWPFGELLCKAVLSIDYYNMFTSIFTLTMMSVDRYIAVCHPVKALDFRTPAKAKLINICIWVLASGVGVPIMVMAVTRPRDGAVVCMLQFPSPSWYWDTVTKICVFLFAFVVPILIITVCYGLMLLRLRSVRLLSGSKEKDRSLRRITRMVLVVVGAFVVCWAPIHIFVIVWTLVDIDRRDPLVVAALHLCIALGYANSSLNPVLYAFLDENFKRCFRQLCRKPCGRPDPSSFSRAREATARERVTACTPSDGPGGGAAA
T4 sequence (P33535 whole entry): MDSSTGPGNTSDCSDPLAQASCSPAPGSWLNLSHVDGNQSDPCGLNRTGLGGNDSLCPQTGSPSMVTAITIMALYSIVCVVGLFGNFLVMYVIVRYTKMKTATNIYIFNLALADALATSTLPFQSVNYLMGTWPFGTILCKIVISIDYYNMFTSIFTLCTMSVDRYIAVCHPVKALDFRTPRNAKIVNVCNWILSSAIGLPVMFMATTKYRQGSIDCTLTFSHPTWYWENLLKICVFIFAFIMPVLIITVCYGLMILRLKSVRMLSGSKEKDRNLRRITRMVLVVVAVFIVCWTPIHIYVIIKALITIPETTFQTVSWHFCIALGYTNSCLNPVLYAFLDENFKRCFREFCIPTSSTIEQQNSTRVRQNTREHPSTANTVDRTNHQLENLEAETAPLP

| Binder | Ki (human NK1 receptor [1]) | Ki (human δ opioid receptor [2]) | GPI/LMMP SP antagonist Ke (guinea pig NK1 receptor [3]) | GTP binding EC50 (human δ opioid receptor [4]) | GTP binding Emax (human δ opioid receptor [4]) | GPI/LMMP IC50 [5] | GTP binding EC50 (rat µ opioid receptor [8]) | GTP binding Emax (rat µ opioid receptor [8]) | GTP binding EC50 (rat µ opioid receptor [9]) | GTP binding Emax (rat µ opioid receptor [9]) | Ki (rat NK1 receptor [10]) | Ki (rat µ opioid receptor [11]) | Ki (rat µ opioid receptor [12]) | also measured |
| --- | --- | --- | --- | --- | --- | --- | --- | --- | --- | --- | --- | --- | --- | --- |
| B1 | 0.0028 nM | 1 nM | 40.8 nM | 5 nM | 125% | 463 nM | – | – | – | – | – | – | – | – |
| B2 | – | – | 1.8 nM | 7.9 nM | 62% | 517 nM | 18 nM | 42% | 18 nM | 42% | 14 nM | 8 nM | 8 nM | GTP binding EC50 (human δ opioid receptor [6]): 7.9 nM; GTP binding Emax (human δ opioid receptor [6]): 62%; GPI/LMMP IC50 [7]: 517 nM; Ki (rat NK1 receptor [13]): 14 nM |
| B3 | – | – | – | – | – | – | 44.9 nM | 66% | – | – | – | – | 1.9 nM | Ki (human NK1 receptor [14]): 0.0017 nM |
| B4 | – | – | – | – | – | – | – | – | – | – | – | – | – | Ki (rat NK1 receptor [15]): 33.9 nM; GPI/LMMP opioid(mu) agonist IC50 [16]: 670 nM; GPI/LMMP SP antagonist Ke (guinea pig NK1 receptor [17]): 8.4 nM; Ki (human NK1 receptor [18]): 0.052 nM |
| B5 | 0.00027 nM | 58.5 nM | 2.83 nM | 51.9 nM | 47% | 1890 nM | – | – | 176 nM | 28% | 1.5 nM | 256 nM | – | – |
| B6 | – | – | – | – | – | – | – | – | – | – | – | – | – | Ki (human NK1 receptor [19]): 0.18 nM; Ki (rat NK1 receptor [20]): 4.54 nM |
